Legend:
[1] = biological target: CD47-Fc (R&D systems) (UniProt Q08722 19-139); assay: competitive ELISA vs SIRPα
[2] = biological target: T1, CD47 natively expressed on tumor cell surface (Jurkat, HL60 cells) (human, UniProt Q08722 19-323); assay: flow cytometry; HL-60 cells
[3] = biological target: T1, CD47 natively expressed on tumor cell …; assay: competitive flow cytometry vs SIRPα-Fc; Jurkat cells
[4] = biological target: human CD47 (R & D systems) (UniProt Q08722 19-139); assay: flow cytometry, CD47-overexpressing cells; HCAb
[5] = biological target: PD-L1 on PD-L1-expressing APC/CHO-K1 cells (UniProt Q9NZQ7 19-290); assay: flow cytometry, PD-L1 CHO cells; HCAb
Chain of PD-L1 on PD-L1-expressing APC/CHO-K1 cells (Q9NZQ7 19-290): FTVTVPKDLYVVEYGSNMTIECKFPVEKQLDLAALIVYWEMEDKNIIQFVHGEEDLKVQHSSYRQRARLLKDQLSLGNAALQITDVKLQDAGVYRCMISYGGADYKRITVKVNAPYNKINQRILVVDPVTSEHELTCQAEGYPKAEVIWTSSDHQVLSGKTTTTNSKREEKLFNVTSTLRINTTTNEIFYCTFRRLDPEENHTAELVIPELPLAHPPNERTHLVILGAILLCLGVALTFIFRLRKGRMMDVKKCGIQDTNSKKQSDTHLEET

[6] = biological target: Human serum albumin (UniProt P02768 25-609); assay: Octet BLI

B1: multi-specific molecule 3321 (CD16F1-L1-hHS10-L1-hA09-10-3-L3-hA09-10-4-L1-H33-14-L3-H33-14) (other)
chain: EVQLVESGGGLVQPGGSLRLSCAVSGSLFSARVMGWYRQAPGKQRELVAAITSGVRTDYADSVKGRFTISRDNAKRAVYLQMNSLKPEDTAVYYCNVNLYNTGNYWGQGTQVTVSSGGGGSGGGSEVQLVESGGGLVQPGGSLRLSCAASGSTDSAYRMGWFRQAPGKEREFVSAINWSDGRTYYADSVKGRFTISRDNSKNTLYLQMNSLRAEDTAVYYCAADPDSRLYYTVPQNYDYWGQGTLVTVSSGGGGSGGGSEVQLVESGGGLVQPGGSLRLSCAASGGGRTFSNYALGWFRQAPGKEREFVAAISRSGGNINYADSVKGRFTISRDNFKNTVYLQMSSLRAEDTAVYYCAAHYLLLPSYISTSTNMYNYWGQGTQVTVSSAAAQVQLVESGGGLVQPGGSLRLSCAASGGGRTFSNYALGWFRQAPGKEREFVAAISRSGGNINYADSVKGRFTISRDNAKNTVYLQMSSLRAEDTAVYYCAAHYLLLPSYISTSTNMYNYWGQGTQVTVSSGGGGSGGGSQVQLVESGGGLVQPGGSLRLSCAASGRTSLILAMAWWRQAPGKEREFAGRIWWNNDMTRYSDSVKGRFTISRDNAKNTVYLQMSSLRAEDTAVYYCEADLIGGSRGWGQGTLVTVSSAAAQVQLVESGGGLVQPGGSLRLSCAASGRTSLILAMAWWRQAPGKEREFAGRIWWNNDMTRYSDSVKGRFTISRDNAKNTVYLQMSSLRAEDTAVYYCEADLIGGSRGWGQGTLVTVSS
[1]
  IC50: 0.267 nM
[2]
  EC50: 0.182 nM
[3]
  IC50: 0.935 nM

B2: A09-10 (antibody, V domains shown)
VH: QVQLVESGGGLVQAGGSLRLSCAASGGGRTFSNYALGWFRQAPGKEREFVAAISRSGGNINYADSAKGRFTISRDNFKNTTYLQMSSLKPEDTAVYYCAAHYLLLPSYISTSTNMYNYWGQGTQVTVSS
[4]
  EC50: 0.36 nM

B3: PL16 (antibody, V domains shown)
VH: QVQLVESGGGLVQAGGSLRLSCAFSGGTFLTYSLGWFRQGPGKEREFVASINWSGYMTSYVDSVKGRFTISRDNAKNTVYLQMNSLKPEDTALYYCAAARTAIAAKRSSEFDYWGQGAQVTVSS
[5]
  EC50: 1.78 nM

B4: multi-specific molecule 1511 (CD16F1-L1-hHS10-L1-hA09-10-2-L3-A09-10-L1-hPL16-L3-hPL16) (bispecific antibody)
chain: EVQLVESGGGLVQPGGSLRLSCAVSGSLFSARVMGWYRQAPGKQRELVAAITSGVRTDYADSVKGRFTISRDNAKRAVYLQMNSLKPEDTAVYYCNVNLYNTGNYWGQGTQVTVSSGGGGSGGGSEVQLVESGGGLVQPGGSLRLSCAASGSTDSAYRMGWFRQAPGKEREFVSAINWSDGRTYYADSVKGRFTISRDNSKNTLYLQMNSLRAEDTAVYYCAADPDSRLYYTVPQNYDYWGQGTLVTVSSGGGGSGGGSEVQLVESGGGLVQPGGSLRLSCAASGGGRTFSNYALGWFRQAPGKEREFVAAISRSGGNINYADSVKGRFTISRDNFKNTTYLQMSSLEPEDTAVYYCAAHYLLLPSYISTSTNMYNYWGQGTQVTVSSAAAQVQLVESGGGLVQAGGSLRLSCAASGGGRTFSNYALGWFRQAPGKEREFVAAISRSGGNINYADSVKGRFTISRDNFKNTTYLQMSSLEPEDTAVYYCAAHYLLLPSYISTSTNMYNYWGQGTQVTVSSGGGGSGGGSEVQLVESGGGLVQPGGSLRLSCAASGGTFLTYSMSWVRQAPGKEREFVSSINWSGYMTYYADSVKGRFTISRDNSKNTLYLQMNSLRAEDTAVYYCAAARTAIAAKRSSEFDYWGQGTQVTVSSAAAEVQLVESGGGLVQPGGSLRLSCAASGGTFLTYSMSWVRQAPGKEREFVSSINWSGYMTYYADSVKGRFTISRDNSKNTLYLQMNSLRAEDTAVYYCAAARTAIAAKRSSEFDYWGQGTQVTVSS
[1]
  IC50: 0.453 nM
[2]
  EC50: 26.2 nM
[3]
  IC50: 1.28 nM

B5: PL14 (antibody, V domains shown)
VH: EVQLVESGGGLVQAGGSLRLSCAASGSTSGIYDMGWYRQAPGKLREVVGIITSGGTTNYADFAKGRFTISRDNAKNMMYLQMNSLKPEDTAVYYCNIRTRLIIWGQGTQVTVSS
[5]
  EC50: 2.09 nM

B6: HS27 (VHH)
VHH: EVQLVESGGGLVQPGGSLRLSCAASGRTFSPYTMGWFRQASGKERESVAATTWTGSRSYYGESVKGRFTISRDSTKNTMSLQMNSLKPEDTAVYYCAAADGAGLYTNRGQYDYWGQGTQVTVSS
[6]
  Kd: 1.14 nM

From US12723105 (dated 2026)
